Experiments:
C3b (human) [1] = biological target: C3b (human) (UniProt P01024); assay: ELISA; competition: C3b coated on the plate (0.25 ug/well); FH 25 nM with a concentration series of FHRs, FH19-20 or FHR-1 1-2, no Sbi; 1 h 37°C, PBST-2% BSA; FH bound detected with OX-24
C3b (human) [2] = biological target: C3b (human) (UniProt P01024); assay: ELISA; competition: C3b coated on the plate; FH 25 nM and WT Sbi-III-IV 1,000 nM with a concentration series of FHRs, FH19-20 or FHR-1 1-2; 1 h 37°C, PBST-2% BSA; FH bound detected with OX-24

Sequence of factor H-related protein 1 (FHR-1), recombinant (Q03591 19-330): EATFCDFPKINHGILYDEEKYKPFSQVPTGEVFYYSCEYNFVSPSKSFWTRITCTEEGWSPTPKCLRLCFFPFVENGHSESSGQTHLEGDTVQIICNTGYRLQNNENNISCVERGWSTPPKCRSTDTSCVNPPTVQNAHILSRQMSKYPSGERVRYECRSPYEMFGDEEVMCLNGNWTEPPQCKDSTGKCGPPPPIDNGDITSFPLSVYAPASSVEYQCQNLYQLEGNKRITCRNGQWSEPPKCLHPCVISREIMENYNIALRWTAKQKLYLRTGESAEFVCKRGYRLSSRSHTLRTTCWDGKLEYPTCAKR

Substance: factor H-related protein 1 (FHR-1), recombinant (from UniProt Q03591 19-330) (natural protein)
- percent residual FH bound to C3b at the highest FHR-1 concentration (C3b (human) [1]): 30%
- percent residual FH bound to C3b at the lowest FHR-1 concentration (C3b (human) [1]): 70%
- percent residual FH bound to C3b at the highest FHR-1 concentration, with Sbi-III-IV WT (C3b (human) [2]): 0%
- percent residual FH bound to C3b at the lowest FHR-1 concentration, with Sbi-III-IV WT (C3b (human) [2]): 25%

— publication PMC6336717
